# Key:
# Assay in all cases: purified protein
# Assay type in all cases: biochemical, Escherichia coli
# purified protein [1] = substrate: Nc1ccn([C@H]2C[C@H](O)[C@@H](COP(=O)(O)O)O2)c(=O)n1; conditions: 2 mM ATP, 10 mM Mg acetate, 50 mM K acetate, 20 mM Tris-acetate, 37°C, three protein batches (N = 3)
# purified protein [2] = substrate: Nc1nc2c(ncn2[C@H]2C[C@H](O)[C@@H](COP(=O)(O)O)O2)c(=O)[nH]1; conditions: 2 mM ATP, 10 mM Mg acetate, 50 mM K acetate, 20 mM Tris-acetate, 37°C, three protein batches (N = 3)
# purified protein [3] = substrate: Cc1cn([C@H]2C[C@H](O)[C@@H](COP(=O)(O)O)O2)c(=O)[nH]c1=O; conditions: 2 mM ATP, 10 mM Mg acetate, 50 mM K acetate, 20 mM Tris-acetate, 37°C, three protein batches (N = 3)
# purified protein [4] = substrate: Nc1ccn([C@H]2C[C@H](O)[C@@H](COP(=O)(O)OP(=O)(O)O)O2)c(=O)n1; conditions: 2 mM ATP, 10 mM Mg acetate, 50 mM K acetate, 20 mM Tris-acetate, 37°C
# purified protein [5] = substrate: Nc1ncnc2c1ncn2[C@H]1C[C@H](O)[C@@H](COP(=O)(O)OP(=O)(O)O)O1; conditions: 2 mM ATP, 10 mM Mg acetate, 50 mM K acetate, 20 mM Tris-acetate, 37°C
# purified protein [6] = substrate: Cc1cn([C@H]2C[C@H](O)[C@@H](COP(=O)(O)OP(=O)(O)O)O2)c(=O)[nH]c1=O; conditions: 2 mM ATP, 10 mM Mg acetate, 50 mM K acetate, 20 mM Tris-acetate, 37°C
# purified protein [7] = substrate: Nc1nc2c(ncn2[C@H]2C[C@H](O)[C@@H](CO[P@](=O)(O)OP(=O)(O)O)O2)c(=O)[nH]1; conditions: 2 mM ATP, 10 mM Mg acetate, 50 mM K acetate, 20 mM Tris-acetate, 37°C
protein,measurement,setting,value
"cytidylate kinase (cmk) (Escherichia coli K-12) (protein, C-terminal 6x His tag (pET24a), kept; E. coli BL21(DE3) host; Ni-NTA) MTAIAPVITIDGPSGAGKGTLCKAMAEALQWHLLDSGAIYRVLALAALHHHVDVASEDALVPLASHLDVRFVSTNGNLEVILEGEDVSGEIRTQEVANAASQVAAFPRVREALLRRQRAFRELPGLIADGRDMGTVVFPDAPVKIFLDASSEERAHRRMLQLQEKGFSVNFERLLAEIKERDDRDRNRAVAPLVPAADALVLDSTTLSIEQVIEKALQYARQKLALA",Km,purified protein [1],314 ± 154 µM
same,Vmax,purified protein [1],69.3 µmol/min/mg
"guanylate kinase (gmk) (Escherichia coli K-12) (protein, C-terminal 6x His tag (pET24a), kept; E. coli BL21(DE3) host; Ni-NTA) MAQGTLYIVSAPSGAGKSSLIQALLKTQPLYDTQVSVSHTTRQPRPGEVHGEHYFFVNHDEFKEMISRDAFLEHAEVFGNYYGTSREAIEQVLATGVDVFLDIDWQGAQQIRQKMPHARSIFILPPSKIELDRRLRGRGQDSEEVIAKRMAQAVAEMSHYAEYDYLIVNDDFDTALTDLKTIIRAERLRMSRQKQRHDALISKLLAD",Km,purified protein [2],848 ± 402 µM
same,Vmax,purified protein [2],76.2 µmol/min/mg
"thymidylate kinase (tmk) (Escherichia coli K-12) (protein, C-terminal 6x His tag (pET24a), kept; E. coli BL21(DE3) host; Ni-NTA) MRSKYIVIEGLEGAGKTTARNVVVETLEQLGIRDMVFTREPGGTQLAEKLRSLVLDIKSVGDEVITDKAEVLMFYAARVQLVETVIKPALANGTWVIGDRHDLSTQAYQGGGRGIDQHMLATLRDAVLGDFRPDLTLYLDVTPEVGLKRARARGELDRIEQESFDFFNRTRARYLELAAQDKSIHTIDATQPLEAVMDAIRTTVTHWVKELDA",Km,purified protein [3],150 ± 22 µM
same,Vmax,purified protein [3],39.4 µmol/min/mg
"nucleotide disphosphate kinase (ndk; NDK) (Escherichia coli K-12) (protein, C-terminal 6x His tag (pET24a), kept; E. coli BL21(DE3) host; Ni-NTA) AIERTFSIIKPNAVAKNVIGNIFARFEAAGFKIVGTKMLHLTVEQARGFYAEHDGKPFFDGLVEFMTSGPIVVSVLEGENAVQRHRDLLGATNPANALAGTLRADYADSLTENGTHGSDSVESAAREIAYFFGEGEVCPRTR",Km,purified protein [4],543 ± 105 µM
same,Km,purified protein [5],1185 ± 87 µM
same,Km,purified protein [6],2398 ± 1036 µM
same,Km,purified protein [7],431 ± 89 µM

# Reference: paper PMC10952841, “Biocatalytic synthesis of 2′‐deoxynucleotide 5′‐triphosphates from bacterial genomic DNA: Proof of principle” (Biotechnology and Bioengineering, 2023)
